The target in experiment [1] is T1, human low-density lipoprotein (LDL; d = 1.019-1.063 g/ml) (human). As to the kind of experiment: SPR.
Experiment [2] deals with T1, human low-density lipoprotein (LDL; d = …). In words: SPR. The source holds these as a separate data set.

Read-outs that look alike come from different tables or passages of the source.

B1: sPLA2-X-HisTag, purified recombinant human (enzyme, UniProt O15496 43-165, looked up)
chain: GILELAGTVGCVGPRTPIAYMKYGCFCGLGGHGQPRDAIDWCCHGHDCCYTRAEEAGCSPKTERYSWQCVNQSVLCGPAENKCQELLCKCDQEIANCLAQTEYNLKYLFYPQFLCEPDSPKCD
As for B1, in experiment [1], the Kd (usually the free concentration of one partner at which half of the binding sites on the other are occupied at equilibrium, for simple one-to-one binding) was found to be 110 nM; the koff (as a rule, the rate constant with which the complex falls apart) was 0.00886 s⁻¹; the kon (commonly a measure of how fast the partners come together) was 82500 M⁻¹ s⁻¹. In experiment [2], this molecule gave a Kd of 3.1 nM, a koff of 0.00024 s⁻¹ and a kon of 65400 M⁻¹ s⁻¹.
